US20200223885A1

Target: IgG1 (manufactured by Sigma-Aldrich)
Assay: SPR (Biacore T100), Fc-binding protein amine-coupled to CM5, IgG1 as analyte

Kd: 3.28 µM
koff: 0.301 s⁻¹
kon: 90200 M⁻¹ s⁻¹
B1: Fc-binding protein FcR9_F (FcR9 with Val192Phe) (receptor)
chain: KIEEAMGMRTEDLPKAEVILEPQWNRVLEKDSVTLKCRGAYSPEDNSTQWFHNESLISSQASSYLIDAATVDDSGEYRCQTSLSTLSDPVQLEVHIGWLLLQAPRWEFKEGDPIHLRCHSWKNTALHKVTYLQNGKGRKYFHHNSDFYIPKATLKDSGSYSCRGLFGSKNVSSETVNITITQGGHHHHHH
